Measured values taken from paper PMC5531466, “Biochemical characterization of a new nicotinamidase from an unclassified bacterium thriving in a geothermal water stream microbial mat community” (PLoS ONE, 2017).

Columns and labels:
[1] = target: T1, (UniProt H5SPS2); test: HPLC nicotinamidase assay, Morrison equation; also thermal shift (Tm […] °C); format: biochemical
T1 construct: full-length, N-terminal 6-histidine tag (pET28a)

[2] = tested on: COC(=O)c1cccnc1; test: purified protein; conditions: Fe2+ active site
[3] = tested on: CCOC(=O)c1cccnc1; test: purified protein; conditions: Fe2+ active site; C155 thiolate attack at C7 of ethylnicotinate
[4] = tested on: Cc1cncc(C(N)=O)c1; test: purified protein; conditions: Fe2+ active site
[5] = tested on: NC(=O)c1cnccn1; test: purified protein; conditions: Fe2+ active site

T1 sequence (H5SPS2 1-220): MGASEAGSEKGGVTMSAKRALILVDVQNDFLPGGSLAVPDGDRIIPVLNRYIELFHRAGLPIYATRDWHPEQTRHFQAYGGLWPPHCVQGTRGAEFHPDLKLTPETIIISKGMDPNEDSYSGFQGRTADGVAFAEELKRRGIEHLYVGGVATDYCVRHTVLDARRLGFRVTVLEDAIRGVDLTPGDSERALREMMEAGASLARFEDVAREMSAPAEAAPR

Molecule | Ki [1] [µM] | Km [2] [µM] | kcat [2] [s⁻¹] | kcat/Km [2] [M⁻¹ s⁻¹] | Km [3] [µM] | kcat [3] [s⁻¹] | kcat/Km [3] [M⁻¹ s⁻¹] | Km [4] [µM] | kcat [4] [s⁻¹] | kcat/Km [4] [M⁻¹ s⁻¹] | Km [5] [µM] | kcat [5] [s⁻¹] | kcat/Km [5] [M⁻¹ s⁻¹]
O=Cc1cccnc1 [nicotinaldehyde] | 0.18 ± 0.001 | – | – | – | – | – | – | – | – | – | – | – | –
UbNic (nicotinamidase) (uncultured Acidobacteriota bacterium) | – | 1080 ± 110 | 54.5 ± 0.8 | 50500 | 1310 ± 30 | 3.7 ± 0.3 | 2800 | 1090 ± 200 | 43.7 ± 0.3 | 40100 | 330 ± 50 | 18.7 ± 0.3 | 56700
